# Substrate: CC(C)(O)[C@@H]1CC[C@](C)([C@H]2[C@@H](O)C[C@@]3(C)[C@@H]4C[C@H](O[C@@H]5O[C@H](CO)[C@@H](O)[C@H](O)[C@H]5O)[C@H]5C(C)(C)[C@@H](O[C@@H]6OC[C@@H](O)[C@H](O)[C@H]6O)CC[C@@]56C[C@@]46CC[C@]23C)O1
# Assay: UHPLC kinetic assay of acetylation
# Type: biochemical, Astragalus propinquus
# Settings: acetyl-CoA as acyl donor
Protein,"Km (paper prints 'toward 1a', read as formation of product 1a (C3'-O-acetylation) from 1) [µM]","Km (paper prints 'toward 1b', read as formation of product 1b (C4'-O-acetylation) from 1) [µM]"
"AmAT7-3 (Astragalus propinquus; A310G) (protein, full length cloned in pET-28a(+), E. coli BL21(DE3), Ni-NTA; for kinetics and crystals pET28a-TEV plus size exclusion) MSSLRLVSSSTIQAANDNNDDSSQLIDLTVWDLIGLERESIQQGLLYHHPNQVDTPNQIQHLKHSLSSTLSFFPPFAGRLVITEYEDNTATCFIACNNAGALFVHAVAENTTISDILQPNKYVPPIVNSLFSLNGVKNREGTIQPLLVVQVTELVDGIFIGLTVNHVVADGKSFWLFVNSWAEISRGFQKPSKLPTLERWFLNDTDHPIRFSFSMEEEKKKFQSGQLTTRFFHFTRENIAHLKSKANGEVTLGNTERRISSLQALLAHVWRSVVRCERIDPQEVLYYILLIDARTRLIPPLEDDYFGNAGDAGVVIMKAGELLEGGLGNVAWNMNKVISLNSDEKIKNRYKSWLRTPQLPSMGMHTTFASQLLIIANSPRFNVYGNDFGWGKPLAVRSSAENKRDCKIVLFAGAEEGSIDIEVCLPYEILEALGNDAEFLDNHSIG",76.7,
"AmAT7-3 (Astragalus propinquus; A310W) (protein, full length cloned in pET-28a(+), E. coli BL21(DE3), Ni-NTA; for kinetics and crystals pET28a-TEV plus size exclusion) MSSLRLVSSSTIQAANDNNDDSSQLIDLTVWDLIGLERESIQQGLLYHHPNQVDTPNQIQHLKHSLSSTLSFFPPFAGRLVITEYEDNTATCFIACNNAGALFVHAVAENTTISDILQPNKYVPPIVNSLFSLNGVKNREGTIQPLLVVQVTELVDGIFIGLTVNHVVADGKSFWLFVNSWAEISRGFQKPSKLPTLERWFLNDTDHPIRFSFSMEEEKKKFQSGQLTTRFFHFTRENIAHLKSKANGEVTLGNTERRISSLQALLAHVWRSVVRCERIDPQEVLYYILLIDARTRLIPPLEDDYFGNAWDAGVVIMKAGELLEGGLGNVAWNMNKVISLNSDEKIKNRYKSWLRTPQLPSMGMHTTFASQLLIIANSPRFNVYGNDFGWGKPLAVRSSAENKRDCKIVLFAGAEEGSIDIEVCLPYEILEALGNDAEFLDNHSIG",,168.3
